Data from patent publication US20240118272A1.

What was measured:
[1] = molecular target: CD63(ECD)-ALP conjugate (human; bovine); assay: HI-1000 capture immunoassay; calibrator C5, 365.43 mU/L; run 1
[2] = molecular target: CD63(ECD)-ALP conjugate (human; bovine); assay: HI-1000 capture immunoassay; calibrator C5, 1563 ng/mL; run 3
[3] = molecular target: CD63(ECD)-ALP conjugate (human; bovine); assay: HI-1000 capture immunoassay; calibrator C4, 313 ng/mL; mean of 3
[4] = molecular target: CD63(ECD)-ALP conjugate (human; bovine); assay: HI-1000 capture immunoassay; calibrator C5, 365.43 mU/L; mean of 3
[5] = molecular target: CD63(ECD)-ALP conjugate (human; bovine); assay: HI-1000 capture immunoassay; calibrator C4, 313 ng/mL; run 3
[6] = molecular target: CD63(ECD)-ALP conjugate (human; bovine); assay: HI-1000 capture immunoassay; calibrator C4, 91.36 mU/L; mean of 3
[7] = molecular target: CD63(ECD)-ALP conjugate (human; bovine); assay: HI-1000 capture immunoassay; calibrator C2, 12.5 ng/mL; mean of 3
[8] = molecular target: CD63(ECD)-ALP conjugate (human; bovine); assay: HI-1000 capture immunoassay; calibrator C3, 22.84 mU/L; mean of 3
[9] = molecular target: CD63(ECD)-ALP conjugate (human; bovine); assay: HI-1000 capture immunoassay; calibrator C5, 1563 ng/mL; run 1
[10] = molecular target: CD63(ECD)-ALP conjugate (human; bovine); assay: HI-1000 capture immunoassay; calibrator C4, 313 ng/mL; run 1
[11] = molecular target: CD63(ECD)-ALP conjugate (human; bovine); assay: HI-1000 capture immunoassay; calibrator C1, 2.5 ng/mL; run 3
[12] = molecular target: CD63(ECD)-ALP conjugate (human; bovine); assay: HI-1000 capture immunoassay; calibrator C2, 12.5 ng/mL; run 3
[13] = molecular target: CD63(ECD)-ALP conjugate (human; bovine); assay: HI-1000 capture immunoassay; calibrator C3, 62.5 ng/mL; run 3
[14] = molecular target: CD63(ECD)-ALP conjugate (human; bovine); assay: HI-1000 capture immunoassay; calibrator C2, 5.71 mU/L; run 2
[15] = molecular target: CD63(ECD)-ALP conjugate (human; bovine); assay: HI-1000 capture immunoassay; calibrator C4, 91.36 mU/L; run 2
[16] = molecular target: CD63(ECD)-ALP conjugate (human; bovine); assay: HI-1000 capture immunoassay; calibrator C3, 22.84 mU/L; run 1
[17] = molecular target: CD63(ECD)-ALP conjugate (human; bovine); assay: HI-1000 capture immunoassay; calibrator C1, 1.43 mU/L; run 3
[18] = molecular target: CD63(ECD)-ALP conjugate (human; bovine); assay: HI-1000 capture immunoassay; calibrator C4, 313 ng/mL; run 2
[19] = molecular target: CD63(ECD)-ALP conjugate (human; bovine); assay: HI-1000 capture immunoassay; calibrator C3, 22.84 mU/L; run 2
[20] = molecular target: CD63(ECD)-ALP conjugate (human; bovine); assay: HI-1000 capture immunoassay; calibrator C5, 365.43 mU/L; run 3
[21] = molecular target: CD63(ECD)-ALP conjugate (human; bovine); assay: HI-1000 capture immunoassay; calibrator C4, 91.36 mU/L; run 1
[22] = molecular target: CD63(ECD)-ALP conjugate (human; bovine); assay: HI-1000 capture immunoassay; calibrator C1, 2.5 ng/mL; mean of 3
[23] = molecular target: CD63(ECD)-ALP conjugate (human; bovine); assay: HI-1000 capture immunoassay; calibrator C2, 12.5 ng/mL; run 1
[24] = molecular target: CD63(ECD)-ALP conjugate (human; bovine); assay: HI-1000 capture immunoassay; calibrator C3, 22.84 mU/L; run 3
[25] = molecular target: CD63(ECD)-ALP conjugate (human; bovine); assay: HI-1000 capture immunoassay; calibrator C2, 5.71 mU/L; mean of 3
[26] = molecular target: CD63(ECD)-ALP conjugate (human; bovine); assay: HI-1000 capture immunoassay; calibrator C2, 5.71 mU/L; run 1
[27] = molecular target: CD63(ECD)-ALP conjugate (human; bovine); assay: HI-1000 capture immunoassay; calibrator C5, 1563 ng/mL; run 2
[28] = molecular target: CD63(ECD)-ALP conjugate (human; bovine); assay: HI-1000 capture immunoassay; calibrator C3, 62.5 ng/mL; run 1
[29] = molecular target: CD63(ECD)-ALP conjugate (human; bovine); assay: HI-1000 capture immunoassay; calibrator C3, 62.5 ng/mL; run 2
[30] = molecular target: CD63(ECD)-ALP conjugate (human; bovine); assay: HI-1000 capture immunoassay; calibrator C4, 91.36 mU/L; run 3
[31] = molecular target: CD63(ECD)-ALP conjugate (human; bovine); assay: HI-1000 capture immunoassay; calibrator C1, 1.43 mU/L; mean of 3
[32] = molecular target: CD63(ECD)-ALP conjugate (human; bovine); assay: HI-1000 capture immunoassay; calibrator C2, 12.5 ng/mL; run 2
[33] = molecular target: CD63(ECD)-ALP conjugate (human; bovine); assay: HI-1000 capture immunoassay; calibrator C2, 5.71 mU/L; run 3
[34] = molecular target: CD63(ECD)-ALP conjugate (human; bovine); assay: HI-1000 capture immunoassay; calibrator C3, 62.5 ng/mL; mean of 3
[35] = molecular target: CD63(ECD)-ALP conjugate (human; bovine); assay: HI-1000 capture immunoassay; calibrator C5, 365.43 mU/L; run 2
[36] = molecular target: CD63(ECD)-ALP conjugate (human; bovine); assay: HI-1000 capture immunoassay; calibrator C5, 1563 ng/mL; mean of 3
[37] = molecular target: CD63(ECD)-ALP conjugate (human; bovine); assay: HI-1000 capture immunoassay; calibrator C1, 1.43 mU/L; run 2
[38] = molecular target: CD63(ECD)-ALP conjugate (human; bovine); assay: HI-1000 capture immunoassay; calibrator C1, 1.43 mU/L; run 1
[39] = molecular target: CD63(ECD)-ALP conjugate (human; bovine); assay: HI-1000 capture immunoassay; calibrator C1, 2.5 ng/mL; run 2
[40] = molecular target: CD63(ECD)-ALP conjugate (human; bovine); assay: HI-1000 capture immunoassay; calibrator C1, 2.5 ng/mL; run 1

Sequence of CD63(ECD)-ALP conjugate (human; bovine) (chain, as listed by the source, chain 1 of 2): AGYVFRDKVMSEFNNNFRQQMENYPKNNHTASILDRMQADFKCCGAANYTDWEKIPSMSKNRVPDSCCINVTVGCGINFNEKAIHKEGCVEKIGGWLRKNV
Sequence of CD63(ECD)-ALP conjugate (human; bovine) (P19111 20-506, chain 2 of 2): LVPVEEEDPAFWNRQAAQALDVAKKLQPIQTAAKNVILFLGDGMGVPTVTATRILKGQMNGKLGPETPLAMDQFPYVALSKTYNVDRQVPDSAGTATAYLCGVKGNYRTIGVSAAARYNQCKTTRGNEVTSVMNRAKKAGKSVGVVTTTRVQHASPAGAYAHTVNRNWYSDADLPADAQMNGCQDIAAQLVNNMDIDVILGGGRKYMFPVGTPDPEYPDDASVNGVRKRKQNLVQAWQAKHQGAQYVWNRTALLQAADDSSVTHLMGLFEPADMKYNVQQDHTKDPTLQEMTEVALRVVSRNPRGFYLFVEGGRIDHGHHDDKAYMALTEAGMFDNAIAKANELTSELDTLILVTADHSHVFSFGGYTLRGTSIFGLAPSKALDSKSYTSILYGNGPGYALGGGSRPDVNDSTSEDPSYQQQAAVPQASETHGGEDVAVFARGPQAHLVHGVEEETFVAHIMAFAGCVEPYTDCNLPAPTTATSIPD

Question: Which results are given for anti-CD63 antibody (Clone: H5C6)?
Answer: Count value [1]: 206000 count; Count [2]: 213000 count; Count (av) [3]: 41900 count; Count value (av) [4]: 208000 count; Count [5]: 42800 count; Count value (av) [6]: 42600 count; Count (av) [7]: 2180 count; Count value (av) [8]: 9160 count; Count [9]: 218000 count; Count [10]: 41700 count; Count [11]: 743 count; Count [12]: 2260 count; Count [13]: 8490 count; Count value [14]: 2380 count; Count value [15]: 42200 count; Count value [16]: 9140 count; Count value [17]: 916 count; Count [18]: 41300 count; Count value [19]: 9240 count; Count value [20]: 207000 count; Count value [21]: 43000 count; Count (av) [22]: 755 count; Count [23]: 2160 count; Count value [24]: 9080 count; Count value (av) [25]: 2290 count; Count value [26]: 2260 count; Count [27]: 205000 count; Count [28]: 8690 count; Count [29]: 9250 count; Count value [30]: 42700 count; Count value (av) [31]: 896 count; Count [32]: 2120 count; Count value [33]: 2240 count; Count (av) [34]: 8810 count; Count value [35]: 212000 count; Count (av) [36]: 212000 count; Count value [37]: 871 count; Count value [38]: 900 count; Count [39]: 751 count; Count [40]: 770 count
